The series concerns the target T1, POLγA WT (UniProt P54099 26-1218).
T1 sequence: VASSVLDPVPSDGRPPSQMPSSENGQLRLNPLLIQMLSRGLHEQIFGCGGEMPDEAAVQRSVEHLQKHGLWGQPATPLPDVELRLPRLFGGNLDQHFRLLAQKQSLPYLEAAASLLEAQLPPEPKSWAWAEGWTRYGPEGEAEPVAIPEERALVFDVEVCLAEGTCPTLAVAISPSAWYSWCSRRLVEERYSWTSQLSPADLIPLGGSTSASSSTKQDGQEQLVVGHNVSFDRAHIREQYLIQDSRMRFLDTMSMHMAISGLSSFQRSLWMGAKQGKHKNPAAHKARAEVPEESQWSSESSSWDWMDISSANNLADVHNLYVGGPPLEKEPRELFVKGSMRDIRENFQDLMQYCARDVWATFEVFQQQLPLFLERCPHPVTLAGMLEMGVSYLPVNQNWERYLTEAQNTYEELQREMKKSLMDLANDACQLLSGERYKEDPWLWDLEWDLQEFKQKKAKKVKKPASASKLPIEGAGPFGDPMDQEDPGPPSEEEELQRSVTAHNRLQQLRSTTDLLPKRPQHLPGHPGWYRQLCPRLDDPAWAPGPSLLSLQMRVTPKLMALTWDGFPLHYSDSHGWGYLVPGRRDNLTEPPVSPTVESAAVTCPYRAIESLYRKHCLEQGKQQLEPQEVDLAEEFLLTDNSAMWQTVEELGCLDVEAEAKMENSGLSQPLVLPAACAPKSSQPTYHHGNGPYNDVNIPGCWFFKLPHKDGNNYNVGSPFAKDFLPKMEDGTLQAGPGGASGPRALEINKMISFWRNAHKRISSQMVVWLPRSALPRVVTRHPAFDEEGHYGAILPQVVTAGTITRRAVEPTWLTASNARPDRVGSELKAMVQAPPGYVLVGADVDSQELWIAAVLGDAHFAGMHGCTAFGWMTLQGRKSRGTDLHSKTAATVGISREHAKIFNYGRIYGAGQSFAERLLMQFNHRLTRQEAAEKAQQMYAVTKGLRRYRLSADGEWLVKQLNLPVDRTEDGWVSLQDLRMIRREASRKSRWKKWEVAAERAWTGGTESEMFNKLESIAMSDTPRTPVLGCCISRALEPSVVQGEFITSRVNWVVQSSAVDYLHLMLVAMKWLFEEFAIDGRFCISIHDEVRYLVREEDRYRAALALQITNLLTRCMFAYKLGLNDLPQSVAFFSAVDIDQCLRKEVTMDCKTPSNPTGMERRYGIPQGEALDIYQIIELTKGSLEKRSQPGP
The experiment in a line: EMSA; POLγA alone; 10 mM MgCl2, ddGTP, dCTP, ATP; Kd in Suppl. Fig. 5A, value not in material; EMSA: 10 fmol DNA in 15 µl, 20 mM Tris-HCl pH 7.8, 1 mM DTT, 0.1 mg/ml BSA, 10 mM MgCl2, 10% glycerol, 2 mM ATP, 0.3 mM ddGTP, 3 mM dCTP, RT 10 min; 6% native PAGE 0.5x TBE. As to conditions: protein: recombinant; label: 5'-32P on strand 2 (21-mer); 5' overhang 15 nt on strand 1; 21 bp duplex; primer-template. Background: In EMSA bound probe runs differently from free probe, usually more slowly.

B1: 36-nt/21-nt primed template (mixed)
DNA 1: TTTTTTTTTTATCCGGGCTCCTCTAGACTCGACCGC
DNA 2: GCGGTCGAGTCTAGAGGAGCC
For B1, the binding result is “binds”.

Source of the values: article doi:10.1101/2020.09.10.291369, “In vivo and in vitro mechanistic characterization of a clinically relevant PolγA mutation”.
